The target in the test is p21-binding domain of PAK-1 fused to agarose beads (GST-Pak1-Rac/Cdc42-binding domain), as used in the Rac1 activation kit (UniProt Q13153). Nature of the test: PAK-1 p21-binding domain (PAK-PKB) pull-down from cell lysate, blot with anti-syndecan-4 or anti-GFP.

The results in this text go back to patent publication US20110124572A1, “SYNDECAN-4 IS A REGULATOR OF RAC1-GTP” (priority 2008, published 2011).

Chain of p21-binding domain of PAK-1 fused to agarose beads (GST-Pak1-Rac/Cdc42-binding domain), as used in the Rac1 activation kit (Q13153 67-150 limits assumed): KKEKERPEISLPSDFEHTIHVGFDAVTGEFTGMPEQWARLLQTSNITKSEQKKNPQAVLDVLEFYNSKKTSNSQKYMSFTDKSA

For the substance “wt-syndecan-4-GFP chimera (human syndecan-4, wild type, GFP inserted at position 131) (from UniProt P31431 19-198)”, the amount of pulled-down syndecan-4 against the Ser179Ala line (% less than Ser179Ala line) amounted to 20.
